According to PMC9672452:

Assay: cell-surface N1, PE anti-Notch1 flow cytometry, CHO
Conditions: control: wild type

Substance	expression_or_secretion (glycan gained)	expression_or_secretion (glycan lost)
NOTCH1 (N1): N386T	no change	–
NOTCH1 (N1): T311P	–	decreases
NOTCH1 (N1): T349P	–	decreases
